Data from PMC12152161, “Molecular basis for assembly and activation of the Hook3 − KIF1C complex-dependent transport machinery” (EMBO Reports, 2025).
Blank lines part the entries; values can stand above or below the binder they belong to.

B2: His10 − MBP − KIF1C(714–809) (domain or fragment, UniProt O43896 714-809, looked up)
chain: PSSGKRRAPRRVYQIPQRRRLQGKDPRWATMADLKMQAVKEICYEVALADFRHGRAEIEALAALKMRELCRTYGKPDGPGDAWRAVARDVWDTVGE
notes: Tag kept, as named in the legends and methods of the native gel, ITC and SEC experiments; also called KIF1C_(H3BD); source: E. coli BL21(DE3) RIL, purified (Ni-NTA, size-exclusion chromatography); not shown: His10, N-terminal, kept; MBP, N-terminal, kept

Key:
[1] = target: T1, full-length KIF1C(WT)−Flag−EGFP (UniProt O43896 1-1103); experiment: cell-based or functional assay
T1 sequence (looked up): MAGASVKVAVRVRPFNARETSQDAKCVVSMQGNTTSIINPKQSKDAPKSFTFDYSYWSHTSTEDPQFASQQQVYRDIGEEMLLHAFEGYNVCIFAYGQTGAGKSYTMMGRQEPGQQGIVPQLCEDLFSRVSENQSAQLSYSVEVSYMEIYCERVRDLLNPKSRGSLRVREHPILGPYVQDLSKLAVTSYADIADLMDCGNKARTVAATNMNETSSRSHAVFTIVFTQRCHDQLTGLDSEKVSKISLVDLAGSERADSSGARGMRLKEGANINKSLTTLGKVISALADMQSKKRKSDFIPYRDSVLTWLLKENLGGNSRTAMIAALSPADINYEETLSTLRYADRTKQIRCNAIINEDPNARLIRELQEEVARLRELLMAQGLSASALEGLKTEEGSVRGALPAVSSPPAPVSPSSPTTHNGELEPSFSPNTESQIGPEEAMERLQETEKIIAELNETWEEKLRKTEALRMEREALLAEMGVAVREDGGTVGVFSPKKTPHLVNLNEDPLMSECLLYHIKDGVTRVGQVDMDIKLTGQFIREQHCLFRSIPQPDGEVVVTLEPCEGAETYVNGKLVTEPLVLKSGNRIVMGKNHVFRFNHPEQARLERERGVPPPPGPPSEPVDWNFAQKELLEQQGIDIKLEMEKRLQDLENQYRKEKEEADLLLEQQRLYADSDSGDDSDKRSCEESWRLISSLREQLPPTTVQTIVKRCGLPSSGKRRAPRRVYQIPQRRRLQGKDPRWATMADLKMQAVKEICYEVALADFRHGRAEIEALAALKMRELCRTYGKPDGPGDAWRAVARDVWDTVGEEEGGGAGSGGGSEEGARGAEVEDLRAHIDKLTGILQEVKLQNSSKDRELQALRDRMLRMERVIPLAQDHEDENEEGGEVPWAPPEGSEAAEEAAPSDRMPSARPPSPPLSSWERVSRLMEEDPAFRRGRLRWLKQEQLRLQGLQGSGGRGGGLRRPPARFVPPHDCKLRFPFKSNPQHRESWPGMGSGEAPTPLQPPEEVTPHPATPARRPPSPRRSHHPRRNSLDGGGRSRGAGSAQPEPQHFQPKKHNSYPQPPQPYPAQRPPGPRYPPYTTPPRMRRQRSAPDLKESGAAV

[2] = target: T2, His10 − MBP−Hook3(553–718) (UniProt Q86VS8 553-718); experiment: native gel or EMSA; His10−MBP-tagged recombinant proteins alone or mixed (10 µM; molar ratio 1:1), incubated 16 h at 4 °C, 10% native gel, 120 V for 2 h on ice, Coomassie staining; details: both partners purified
T2 construct: source: E. coli BL21(DE3) RIL, purified (Ni-NTA, size-exclusion chromatography); not shown: His10, N-terminal, kept; MBP, N-terminal, kept
T2 sequence (looked up): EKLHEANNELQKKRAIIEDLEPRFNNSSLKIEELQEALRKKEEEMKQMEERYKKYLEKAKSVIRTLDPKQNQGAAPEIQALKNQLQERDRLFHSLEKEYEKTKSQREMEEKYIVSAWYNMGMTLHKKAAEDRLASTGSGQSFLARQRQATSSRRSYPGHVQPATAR

[3] = target: T3, His10 − MBP − PTPN21(19–308) (UniProt Q16825 19-308); experiment: ITC; 0.8 mM His10−MBP−Hook3(553–624) or His10−MBP−PTPN21(19–308) titrated into 0.04 mM His10−MBP−KIF1C(714–809); 25 °C; 50 mM Tris-HCl pH 7.5, 500 mM NaCl, 3 mM β-mercaptoethanol; MicroCal VP-ITC; details: both partners purified
T3 construct: Tagged form used in native gels and ITC; also called PTPN21_(FERM); FERM domain of PTPN21; source: E. coli BL21(DE3) RIL, purified (Ni-NTA, size-exclusion chromatography); not shown: His10, N-terminal, kept; MBP, N-terminal, kept
T3 sequence (looked up): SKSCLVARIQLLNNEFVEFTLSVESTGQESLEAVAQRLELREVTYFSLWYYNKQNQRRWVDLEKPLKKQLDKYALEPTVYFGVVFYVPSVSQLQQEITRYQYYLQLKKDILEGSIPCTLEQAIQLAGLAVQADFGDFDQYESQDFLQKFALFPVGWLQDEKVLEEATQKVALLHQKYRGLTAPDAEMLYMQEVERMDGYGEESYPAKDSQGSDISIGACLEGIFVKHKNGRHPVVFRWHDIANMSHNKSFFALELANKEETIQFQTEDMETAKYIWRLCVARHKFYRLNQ

[4] = target: B2; experiment: as above; details: both partners purified
[5] = target: the molecule itself; experiment: crystal structure; Hook3(553–624) − KIF1C(714–809) complex, 30 mg/mL, sitting drop at 4 °C, 0.1 M sodium citrate/citric acid pH 5.5, 20% PEG 4000, 20% isopropanol; 3.0 Å

Binder: B2
- binding result [2]: binds
- Kd [3]: 5.15 µM

B4: Hook3(553–624) (domain or fragment, UniProt Q86VS8 553-624, looked up)
chain: EKLHEANNELQKKRAIIEDLEPRFNNSSLKIEELQEALRKKEEEMKQMEERYKKYLEKAKSVIRTLDPKQNQ
notes: Untagged form used in the SEC replacement analysis and in the crystals; parallel coiled-coil homodimer in both crystal structures; A selenomethionine-substituted form was also made for the apo structure; also called Hook3CC3; source: E. coli BL21(DE3) RIL, purified (Ni-NTA, size-exclusion chromatography, tag removed with TEV protease); not shown: His10, N-terminal, cleaved; MBP, N-terminal, …
- stoichiometry N [5]: 2

The next lines start with the values.

- tail/cytoplasm ratio of Hook3−Myc−FuRed upon co-expression in RPE1 cells, 16 h post transfection [1]: 1.3 tail/cytoplasm ratio
- tail/cytoplasm ratio of KIF1C−Flag−EGFP upon co-expression in RPE1 cells, 16 h post transfection [1]: 3.6 tail/cytoplasm ratio
B1: full-length Hook3(WT)−Myc−FuRed (natural protein, UniProt Q86VS8 1-718, looked up)
chain: MFSVESLERAELCESLLTWIQTFNVDAPCQTVEDLTNGVVMAQVLQKIDPAYFDENWLNRIKTEVGDNWRLKISNLKKILKGILDYNHEILGQQINDFTLPDVNLIGEHSDAAELGRMLQLILGCAVNCEQKQEYIQAIMMMEESVQHVVMTAIQELMSKESPVSAGNDAYVDLDRQLKKTTEELNEALSAKEEIAQRCHELDMQVAALQEEKSSLLAENQVLMERLNQSDSIEDPNSPAGRRHLQLQTQLEQLQEETFRLEAAKDDYRIRCEELEKEISELRQQNDELTTLADEAQSLKDEIDVLRHSSDKVSKLEGQVESYKKKLEDLGDLRRQVKLLEEKNTMYMQNTVSLEEELRKANAARSQLETYKRQVVELQNRLSEESKKADKLDFEYKRLKEKVDSLQKEKDRLRTERDSLKETIEELRCVQAQEGQLTTQGLMPLGSQESSDSLAAEIVTPEIREKLIRLQHENKMLKLNQEGSDNEKIALLQSLLDDANLRKNELETENRLVNQRLLEVQSQVEELQKSLQDQGSKAEDSVLLKKKLEEHLEKLHEANNELQKKRAIIEDLEPRFNNSSLKIEELQEALRKKEEEMKQMEERYKKYLEKAKSVIRTLDPKQNQGAAPEIQALKNQLQERDRLFHSLEKEYEKTKSQREMEEKYIVSAWYNMGMTLHKKAAEDRLASTGSGQSFLARQRQATSSRRSYPGHVQPATAR

- Kd [4]: 1.58 µM
B3: His10 − MBP−Hook3(553–624) (domain or fragment, UniProt Q86VS8 553-624, looked up)
chain: EKLHEANNELQKKRAIIEDLEPRFNNSSLKIEELQEALRKKEEEMKQMEERYKKYLEKAKSVIRTLDPKQNQ
notes: Tagged form used in native gels and ITC; also called Hook3CC3; source: E. coli BL21(DE3) RIL, purified (Ni-NTA, size-exclusion chromatography); not shown: His10, N-terminal, kept; MBP, N-terminal, kept
